This is an account of results in patent publication US20170319648A1 (BAO KANG BIOMEDICAL HEALTHCARE, published 2017).

The target in this test is T1, TEAD.
T1 chain: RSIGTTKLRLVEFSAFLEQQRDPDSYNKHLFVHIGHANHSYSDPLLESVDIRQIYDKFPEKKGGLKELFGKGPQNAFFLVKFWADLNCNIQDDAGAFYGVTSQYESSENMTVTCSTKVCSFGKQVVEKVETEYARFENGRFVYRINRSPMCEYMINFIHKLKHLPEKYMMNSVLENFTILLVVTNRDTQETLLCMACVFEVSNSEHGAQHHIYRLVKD
The test can be described thus: IC50 for TEAD binding; method not named in the example (TR-FRET test is the filing's screening method).

Positions of bridges follow the written chain, without caps; N, C: chain ends. Non-standard residues stand in square brackets, D forms with d. No end group written: not given here. hCys = N[C@@H](CCS)C(=O)O

As a reminder, the IC50 is the concentration at which inhibition is half-maximal. A lower IC50 goes with greater potency.

B1: polypeptide of SEQ ID NO.: 8 (VPMCLRKLPESFCHPPE) (peptide)
peptide: VPMCLRKLPESFCHPPE
modifications: disulfide 4-13
For the molecule B1, the IC50 came out at 28 nM.

B2: polypeptide of SEQ ID NO.: 9 (VPM(Hcy)LRKLPCSFCDPPE) (peptide)
peptide: VPM[hCys]LRKLPCSFCDPPE
modifications: disulfide 4-13
Regarding B2, the IC50 came out at 25 nM. This IC50 and that of the molecule before are within 1.5-fold of each other.
